Laboratory results published in patent publication US20250250330A1.
Values joined by “and” are separate entries in the source; they are usually repeats but may differ in a detail not shown here. Equal entries are not always repeated.

Target: Recombinant human VEGF165 (Peprotech, Cat #100-20) (human) (UniProt P15692)
Assay: ELISA; rhVEGF165 coated, anti-human IgG Fc-HRP detection

Aflibercept (Fc fusion), sequence (chain): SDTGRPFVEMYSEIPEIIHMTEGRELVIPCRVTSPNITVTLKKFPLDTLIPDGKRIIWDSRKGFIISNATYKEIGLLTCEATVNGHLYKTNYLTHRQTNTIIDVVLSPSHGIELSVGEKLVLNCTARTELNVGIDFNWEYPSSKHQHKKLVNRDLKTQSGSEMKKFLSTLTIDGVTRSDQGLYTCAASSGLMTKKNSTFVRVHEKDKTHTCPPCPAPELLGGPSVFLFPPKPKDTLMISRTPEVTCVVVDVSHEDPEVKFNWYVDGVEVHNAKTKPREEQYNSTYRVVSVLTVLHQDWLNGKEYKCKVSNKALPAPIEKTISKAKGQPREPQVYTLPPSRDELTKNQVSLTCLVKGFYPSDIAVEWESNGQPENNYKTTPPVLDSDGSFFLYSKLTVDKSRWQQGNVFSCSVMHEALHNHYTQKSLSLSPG
Recombinant human VEGF165 (Peprotech, Cat #100-20) (human), sequence (P15692 other isoform, or with tags, fused parts or gaps limits assumed): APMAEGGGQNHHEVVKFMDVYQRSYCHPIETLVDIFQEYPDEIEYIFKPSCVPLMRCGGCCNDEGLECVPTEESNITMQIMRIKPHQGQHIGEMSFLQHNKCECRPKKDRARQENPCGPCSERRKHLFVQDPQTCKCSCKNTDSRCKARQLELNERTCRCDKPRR

- EC50: 0.0513 nM and 0.074 nM and 0.0403 nM
Substance: Aflibercept (Fc fusion)
